{"source": "patent US20180258175A1", "about": "(ABLEXIS, published 2018)", "binders": {"B1": {"name": "CCK-416A (antibody, V domains shown)", "VH": "EVQLVESGGDLVQPGGSLRLSCADSRFTFSSYSMNWVRQAPGKGLEWVSYISPSSSTIYYADSVRGRFTISRDNAKNSLYLQMNSLRNEDTAVYYCARDFPHDYGYYPHYFDYWGQGTLVTVSS", "VL": "not shown", "notes": "AlivaMab chimeric IgG, human kappa LC"}, "B2": {"name": "CCK-415A (antibody, V domains shown)", "VH": "QVQLQESGPGLVKPSETLSLTCTVSGGSISSSYWTWIRQPPGKGLEWIGYIHYSGSTNYNPSLKSRVTISVDTSKNQFSLKLSSVTAADTAVYYCARGFDYWGQGTLVTVSS", "VL": "not shown", "notes": "as for B1"}, "B3": {"name": "CCK-423A (antibody, V domains shown)", "VH": "QVQLEQSGAEVKRPGASVKVSCKASGYTFTGYYMHWVRQAPGQGLEWMGWINPNRGDTNYAQKFQGRVTMTRDTSISTAYMELSRLRSDDTAVYYCARDLEGGGPFDYWGQGTLVTVSS", "VL": "DIVMTQTPLSLPVTPGEPASISCRSSQSLLDSDDGNTYLDWYLQKPGQSPQLLIYTLSYRASGVPDRFSGSGSGTDFTLKISRVEAEDVGVYYCMQRIEFPSTFGQGTRLEIK", "notes": "AlivaMab chimeric IgG, human kappa LC; also called AlivaMab CCK423A; AlivaMab Mouse CCK423A"}, "B4": {"name": "CCK423A-IgG4κ (fully human) (antibody, V domains shown)", "VH": "B3 VH", "VL": "B3 VL", "notes": "also called Human IgG4κ; CCK423A-IgG4K"}}, "key": {"[1]": {"molecular_target": "T1, human CD115 extracellular domain (Sino Biological 10161-H08H) (human, UniProt P07333 20-517)", "T1 construct": "extracellular domain; bought recombinant protein; also called huCD115; hu-CD115", "assay": "ELISA, blocking of biotin-CSF-1 binding to coated hu-CD115"}, "[2]": {"molecular_target": "T1, human CD115 extracellular domain (Sino …)", "assay": "competition ELISA, competitor TMR 24A;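 also: clonal anti-huCD115 hybridoma supernatant antibodies bound with a competitor mouse antibody present, and failure to bind puts a clone in that competitor's epitope bin; low signal means same epitope bin as the mouse competitor antibody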"}, "[3]": {"molecular_target": "T1, human CD115 extracellular domain (Sino …)", "assay": "competition ELISA, competitor TMR 44B;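 also: binding of antibodies from single-clone hybridoma supernatants to huCD115 measured with the competitor antibody present, a drop in signal meaning both share an epitope bin; low signal means same epitope bin as the mouse competitor antibody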"}, "[4]": {"molecular_target": "T1, human CD115 extracellular domain (Sino …)", "assay": "competition ELISA, competitor TMR 95A;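 also: clonal anti-huCD115 hybridoma supernatants tested for binding while a competitor mouse antibody is present, where failure to bind assigns them to that competitor's epitope bin; low signal means same epitope bin as the mouse competitor antibody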"}, "[5]": {"molecular_target": "T1, human CD115 extracellular domain (Sino …)", "assay": "competition ELISA, competitor TMR 20A;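 also: epitope binning by ELISA, anti-huCD115 hybridoma supernatant antibodies tested for binding to huCD115 with the competitor antibody present, loss of binding placing them in the competitor's bin; low signal means same epitope bin as the mouse competitor antibody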"}, "[6]": {"molecular_target": "T2, native CD115 on OCI-AML5 cells (UniProt P07333 20-972, limits assumed)", "assay": "cell-based or functional assay"}, "[7]": {"molecular_target": "T1, human CD115 extracellular domain (Sino …)", "assay": "competition ELISA, competitor TMR 35A"}, "[8]": {"molecular_target": "T1, human CD115 extracellular domain (Sino …)", "assay": "competition ELISA, competitor TMR 100A"}, "[9]": {"molecular_target": "T1, human CD115 extracellular domain (Sino …)", "assay": "SPR ProteOn, mAb amine coupled, Hu CD115 analyte"}, "[10]": {"molecular_target": "T2, native CD115 on OCI-AML5 cells", "assay": "cell-based or functional assay", "remark": "listed apart in the source"}, "[11]": {"molecular_target": "T1, human CD115 extracellular domain (Sino …)", "assay": "ELISA, blocking of biotin-CSF-1 binding to coated hu-CD115", "remark": "listed apart in the source"}}, "note": "Read-outs that look alike come from different tables or passages of the source."}
{"binder": "B1", "values": [{"measurement": "IC50", "setting": "[1]", "result": 811, "unit": "pM"}, {"measurement": "signal vs NO COMP=100", "setting": "[2]", "result": 37, "unit": "%"}, {"measurement": "signal vs NO COMP=100", "setting": "[3]", "result": 53, "unit": "%"}, {"measurement": "signal vs NO COMP=100", "setting": "[4]", "result": 21, "unit": "%"}, {"measurement": "signal vs NO COMP=100", "setting": "[5]", "result": 94, "unit": "%"}, {"measurement": "IC50, inhibition of CSF-1 induced phosphorylation of CD115", "setting": "[6]", "result": 1350, "unit": "pM"}, {"measurement": "signal vs NO COMP=100", "setting": "[7]", "result": 107, "unit": "%"}, {"measurement": "signal vs NO COMP=100", "setting": "[8]", "result": 104, "unit": "%"}]}
{"binder": "B2", "values": [{"measurement": "IC50", "setting": "[1]", "result": 355, "unit": "pM"}, {"measurement": "signal vs NO COMP=100", "setting": "[2]", "result": 31, "unit": "%"}, {"measurement": "signal vs NO COMP=100", "setting": "[3]", "result": 46, "unit": "%"}, {"measurement": "signal vs NO COMP=100", "setting": "[4]", "result": 11, "unit": "%"}, {"measurement": "signal vs NO COMP=100", "setting": "[5]", "result": 97, "unit": "%"}, {"measurement": "IC50, inhibition of CSF-1 induced phosphorylation of CD115", "setting": "[6]", "result": 570, "unit": "pM"}, {"measurement": "signal vs NO COMP=100", "setting": "[7]", "result": 96, "unit": "%"}, {"measurement": "signal vs NO COMP=100", "setting": "[8]", "result": 93, "unit": "%"}]}
{"binder": "B3", "values": [{"measurement": "Kd", "setting": "[9]", "result": 1200, "unit": "pM"}, {"measurement": "koff", "setting": "[9]", "result": 0.015, "unit": "s⁻¹"}, {"measurement": "kon", "setting": "[9]", "result": "1.3e+07", "unit": "M⁻¹ s⁻¹"}, {"measurement": "IC50", "setting": "[1]", "result": 135, "unit": "pM"}, {"measurement": "IC50, inhibition of CSF-1 induced P-Tyr on CD115", "setting": "[10]", "result": 58, "unit": "pM"}, {"measurement": "IC50, inhibition of CSF-1 induced phosphorylation of CD115", "setting": "[6]", "result": 45, "unit": "pM"}, {"measurement": "IC50", "setting": "[11]", "result": 191, "unit": "pM"}]}
{"binder": "B4", "values": [{"measurement": "Kd", "setting": "[9]", "result": 1300, "unit": "pM"}, {"measurement": "koff", "setting": "[9]", "result": 0.015, "unit": "s⁻¹"}, {"measurement": "kon", "setting": "[9]", "result": "1.1e+07", "unit": "M⁻¹ s⁻¹"}, {"measurement": "IC50, inhibition of CSF-1 induced P-Tyr on CD115", "setting": "[10]", "result": 60, "unit": "pM"}, {"measurement": "IC50", "setting": "[11]", "result": 133, "unit": "pM"}]}
